± gives the half width of the 95% confidence interval.
How the values were obtained:
[1] = folding stability dG unfold from trypsin proteolysis; higher = more stable
Method: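 Folding stability of de novo designed mini-proteins (<80 aa, no Cys; designed by TrROS, TrMRF, ProteinMPNN and the joint model) was measured by cDNA display proteolysis with trypsin and chymotrypsin. Each protease was used at 11 concentrations in a threefold dilution series plus a no-protease condition. K50 was inferred by Bayesian fitting of sequencing counts, and dG unfold was derived against a sequence-predicted unfolded-state K50 (Tsuboyama et al. method). Sequences shown include variable-length N-terminal GS-type padding (SAGGSAGG...) inside a display construct carrying a PA tag. Rows were kept only if the AF2 dimer inter-PAE was >15, to exclude likely homo-oligomers.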

[2] = folding stability dG unfold from chymotrypsin proteolysis; higher = more stable
Procedure, shortened: (§1)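 How resistant each design was to proteolysis was captured as K50, inferred by Bayesian fitting of sequencing counts. Unfolding free energy was then derived relative to a sequence-predicted unfolded-state K50 and a shared folded-state K50, per protease or combined. Digestion used trypsin and chymotrypsin at 11 threefold-diluted concentrations plus a no-protease condition, on mini-proteins under 80 residues without cysteine in a PA-tagged cDNA display construct. Designs were kept only when AlphaFold2 dimer inter-PAE was above 15.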

[3] = folding stability dG unfold (combined trypsin and chymotrypsin); higher = more stable
Procedure, shortened: as §1

SAGGSAGGSGWIKIEFWIPIPIPVMKFDPGDGNWEMEPVTIMIRVEIEIPIPPSPEDLEKNGLSAGGSAGGS [r20_172_TrROS]
folding stability dG unfold [1]: 2.2 ± 0.15 kcal/mol | folding stability dG unfold [2]: 2.82 ± 0.069 kcal/mol | folding stability dG unfold [3]: 2.57 ± 0.27 kcal/mol

SAGEVAPEEIRKIAEEIAKKLGLKNVKVEVSRDEETGEITVKIEVDIPESKKEKKEELEKAIKEKLGLKSAG [r5_9_JUSTAS]
folding stability dG unfold [1]: 1.97 ± 0.084 kcal/mol | folding stability dG unfold [2]: 2.96 ± 0.094 kcal/mol | folding stability dG unfold [3]: 2.7 ± 0.17 kcal/mol

SMTLTIEVDPNDPAKVKALIDSTPPDTTVTLVFPQEDGSKPVKTITVKPPLEKPISPENMTPKNVAARKKSA [r9_1103_JUSTAS]
folding stability dG unfold [1]: -0.782 ± 0.69 kcal/mol | folding stability dG unfold [2]: 0.481 ± 0.099 kcal/mol | folding stability dG unfold [3]: 0.118 ± 0.18 kcal/mol

SAGGSAGGSAGVNPNLPNYSVVPTTVTVKVLETFTDPQGNSYTREFTLEVETLIVNPPLLSAGGSAGGSAGG [r17_523_JUSTAS]
folding stability dG unfold [1]: 2.89 ± 0.12 kcal/mol | folding stability dG unfold [2]: 3.91 ± 0.084 kcal/mol | folding stability dG unfold [3]: 3.59 ± 0.12 kcal/mol

SAGGSAEKPVKIHLMYNPDYYYVRIRNNGGPQSFMFKPDMDIEEIANNFPPGIDEIEIHPMPPEAFSAGGSA [r15_1058_TrROS]
folding stability dG unfold [1]: 0.251 ± 0.14 kcal/mol | folding stability dG unfold [2]: 0.491 ± 0.099 kcal/mol | folding stability dG unfold [3]: 0.421 ± 0.1 kcal/mol

SAGGSAKRVITIGNDEDQERVQEEAEDNGVKKRPIPGDWDDFLSNLQDNFPEIDRIVIPNGREFEISAGGSA [r15_712_TrROS]
folding stability dG unfold [1]: -0.659 ± 0.32 kcal/mol | folding stability dG unfold [2]: -1.27 ± 0.32 kcal/mol | folding stability dG unfold [3]: -0.953 ± 0.44 kcal/mol

SAGGSVRLELEGVNPETGERYRLEFELPPVPLPPVLVVPLEDLELLRRLGIPEDAAVFPELGLVVVASAGGS [r16_194_TrMRF]
folding stability dG unfold [1]: 2.29 ± 0.082 kcal/mol | folding stability dG unfold [2]: 2.76 ± 0.051 kcal/mol | folding stability dG unfold [3]: 2.66 ± 0.12 kcal/mol

SAGGMKIKKITVEKNPETGELVVTVEVEINGKKYKFTFYKDGTVKVEVEVNGKKVTITLPVEELKKLSAGGS [r8_238_TrROS_Hall]
folding stability dG unfold [1]: 2.13 ± 0.058 kcal/mol | folding stability dG unfold [2]: 3.8 ± 0.063 kcal/mol | folding stability dG unfold [3]: 3.35 ± 0.13 kcal/mol

SAGGELSEEFVKKLFENLGFEELEVVDLENKKVAYFRKGNYLVKVYDDGTIEIFDENGELVETINVDSAGGS [r8_147_TrMRF]
folding stability dG unfold [1]: 2.26 ± 0.12 kcal/mol | folding stability dG unfold [2]: 3.89 ± 0.053 kcal/mol | folding stability dG unfold [3]: 3.48 ± 0.19 kcal/mol

SAGGSAGGSNMPPGMEVEMEPIIEREIKNPNGRKLKIKIYVMKIRPPGGPPMFFIALDIQILDSAGGSAGGS [r12_544_TrROS]
folding stability dG unfold [1]: 3.48 ± 0.16 kcal/mol | folding stability dG unfold [2]: 5.03 ± 0.28 kcal/mol | folding stability dG unfold [3]: 4.52 ± 0.22 kcal/mol

SAGGSAGGDYMMIKITNGSIKLMDGDDGKPIANLPPNQEITIMIPIKPPPPPEERKYDPNGKPKSAGGSAGG [r6_40_TrROS]
folding stability dG unfold [1]: 0.515 ± 0.2 kcal/mol | folding stability dG unfold [2]: 1.24 ± 0.2 kcal/mol | folding stability dG unfold [3]: 0.799 ± 0.32 kcal/mol

SAKDIEIEMERTNGYYQMTIKLPGKGYEISVWMPGDQYEISVQPPKNPDEVETIPFTVPEIKDALIDALSAG [r14_716_TrROS]
folding stability dG unfold [1]: 0.519 ± 0.12 kcal/mol | folding stability dG unfold [2]: 1.26 ± 0.16 kcal/mol | folding stability dG unfold [3]: 1.18 ± 0.3 kcal/mol

SAGGSAGGSMKIKIEVDKETGYIVIEAEPGETIEIEIGGKKIKMEVIENEDGSLYFVFKIEKPSAGGSAGGS [r12_970_TrROS_Hall]
folding stability dG unfold [1]: 2.23 ± 0.12 kcal/mol | folding stability dG unfold [2]: 4.06 ± 0.085 kcal/mol | folding stability dG unfold [3]: 3.6 ± 0.24 kcal/mol

SAGMTVTLPGDKSYTVTVKYTLYDADGKKLGEKTYTKTVTVAPNSTVTINIPNTYPNTVVTEVTVTPESAGG [r19_295_JUSTAS]
folding stability dG unfold [1]: 3.91 ± 0.35 kcal/mol | folding stability dG unfold [2]: 4.38 ± 0.092 kcal/mol | folding stability dG unfold [3]: 4.32 ± 0.13 kcal/mol

SAGGSAGGSAGVLSLEGVVSTEEFEDPSSSNKTLVITLPGGERVVVNLPSSPSSVVTRLVSAGGSAGGSAGG [r17_182_JUSTAS]
folding stability dG unfold [1]: 0.215 ± 0.028 kcal/mol | folding stability dG unfold [2]: 0.467 ± 0.066 kcal/mol | folding stability dG unfold [3]: 0.422 ± 0.074 kcal/mol

SAGGSAGGSPDVVVTVEKNEDGEETVTVLMSREDVERLAAALPDVKVEELPDGLVLLTVRVKPSAGGSAGGS [r20_231_TrROS_Hall]
folding stability dG unfold [1]: 0.51 ± 0.038 kcal/mol | folding stability dG unfold [2]: 0.827 ± 0.07 kcal/mol | folding stability dG unfold [3]: 0.728 ± 0.089 kcal/mol

SAGGMKVEIEIEEEPETGKVKITIKIDDVEIEIEATEEEIEKLIEEIEKIKAEPKLTEDGKLVPVIGSAGGS [r8_332_TrMRF]
folding stability dG unfold [1]: 1.94 ± 0.24 kcal/mol | folding stability dG unfold [2]: 1.8 ± 0.29 kcal/mol | folding stability dG unfold [3]: 1.92 ± 0.3 kcal/mol

SAGGGMTVTRTIYLPNMTEEEKKALAEEIAEEVREELEKRGYPVKEITVDVKFIPGKGIVIVTVTLKLSAGG [r13_212_JUSTAS]
folding stability dG unfold [1]: 3.29 ± 0.09 kcal/mol | folding stability dG unfold [2]: 3.64 ± 0.089 kcal/mol | folding stability dG unfold [3]: 3.52 ± 0.055 kcal/mol

SAGGPNWYLKVKIEHRYPNPDNGKWQERRMEVIIPFKDPDQLPPNALKKLIDIMQPMGFRVDVELFPWSAGG [r13_926_TrROS]
folding stability dG unfold [1]: 3.19 ± 0.23 kcal/mol | folding stability dG unfold [2]: 3.99 ± 0.12 kcal/mol | folding stability dG unfold [3]: 3.76 ± 0.28 kcal/mol

SAGGVVTVTVDPNSDKVTAYTTRTVTVYFNELGIWKEEEVTDVVTMSQEELEKLKEESGLPMVIVGASAGGS [r8_337_JUSTAS]
folding stability dG unfold [1]: 0.216 ± 0.061 kcal/mol | folding stability dG unfold [2]: -0.0773 ± 0.19 kcal/mol | folding stability dG unfold [3]: 0.238 ± 0.094 kcal/mol
